Assay results from patent US20090298197, “SERS-BASED METHODS FOR DETECTION OF BIOAGENTS” (OXONICA MATERIALS INC., published 2009).

What was measured:
alpha-thrombin [1] = target: T1, alpha-thrombin (UniProt P00734;P00734 P00734:328-363,P00734:364-622); test: fluorescence restored on nanowire beacon with 10 ug/ml thrombin (form not specified), Tris-HCl, 30 min, room temperature
alpha-thrombin [2] = target: T1, alpha-thrombin; test: nanowire fluorescence beacon; highest signal to noise; thrombin detected at about 50 nM in buffer and in 50% serum (detection limit, not Kd); greatest signal wi
ovalbumin = ovalbumin (UniProt P01012 P01012:2-386); test: negative control, little signal; nanowire fluorescence beacon; details: label: TAMRA 3'; no hairpin
Sequence of ovalbumin (P01012 2-386, one chain of several): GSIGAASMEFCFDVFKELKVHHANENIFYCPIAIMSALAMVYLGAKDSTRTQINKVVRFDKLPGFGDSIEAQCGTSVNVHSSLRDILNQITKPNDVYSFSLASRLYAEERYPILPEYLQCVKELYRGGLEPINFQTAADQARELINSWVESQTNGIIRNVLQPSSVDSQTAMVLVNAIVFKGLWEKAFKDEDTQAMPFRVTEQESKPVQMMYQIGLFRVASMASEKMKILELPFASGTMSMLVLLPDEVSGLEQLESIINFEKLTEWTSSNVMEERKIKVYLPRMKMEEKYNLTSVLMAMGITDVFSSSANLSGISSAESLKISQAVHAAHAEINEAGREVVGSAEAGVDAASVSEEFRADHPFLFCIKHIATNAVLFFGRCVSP
Experimental: Probe assembly was performed as for standard molecular beacons. The assay was performed by diluted the thrombin protein with Tris-HCl buffer to attain desired concentration. Then 50 μl thrombin protein solution was mixed with 3 μl nanowire assembled aptamer probe in a microfuge tube and incubated for 30 min, with rotation at room temperature. The contents were centrifuged, washed with 0.1% Tween-20/PBS once and fluorescence images acquired using fluorescence microscope described above.
As expected no fluorescence was observed, due to the fluorescence quenching of the TAMRA by the nanowire. However, when the thrombin protein was added to the reaction by incubating 10 μg/ml thrombin with 3 μl nanowire-Apt1 assembled probes for 30 min, fluorescence was restored. An investigation into the effect of the hairpin in the beacons was carried out. […] This sequence was therefore used for subsequent experiments. […] When this experiment was repeated in 50% serum, the detection limit was again approximately 50 nM (FIG. 15B). These are very encouraging results. Finally, it is important to understand the specificity of the assay, in addition to the sensitivity. THR Apt 3 assembled nanowires were incubated with a pair of homologous proteins, α Thrombin and β Thrombin, and with ovalbumin as a negative control, and a blank (labeled control). […]

B1: THR Apt1 (ssDNA)
DNA: CCAACGGTTGGTGTGGTTGG
modifications: 5' thiol-(CH2)6, 3' (CH2)7-TAMRA, assembled on Au/Ag nanowires
Does B1 bind (alpha-thrombin [1])?
Result: binds

B2: THR Apt3 (ssDNA)
DNA: TGGTTGGTGTGGTTGG
modifications: 5' thiol-(CH2)6, 3' (CH2)7-TAMRA, assembled on Au/Ag nanowires
Does B2 bind (alpha-thrombin [2])?
Result: binds

Does B2 bind (ovalbumin)?
Result: no binding
